Test results taken from the nanobody polyreactivity screen of Harvey et al. (2022).

test: yeast display, Sf9 membrane polyspecificity reagent, FACS + sequencing; frameworks hold sequencing errors
Method in brief: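 A synthetic nanobody library was expressed on Saccharomyces cerevisiae BJ5465 by galactose induction for 36–48 hours. The library was stained for 1 hour at 4 °C with 10% biotinylated, detergent-solubilized Sf9 membrane reagent and enriched with streptavidin microbeads before FACS. Low and high (top ~1%) gates were set on anti-HA fluorescence for expression and streptavidin fluorescence for reagent binding, and each polyreactivity label reflects the gate of origin.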

**Q.** For “QVQLVESGGGLVQAGGSLRLSCAASGRTFNVYAMGWYRQAPGKERELVAVITNGGSTNYADSVKGRFTISRDNAKNTVYLQMNSLKPEDTAVYYCAASWGYGALTPDMGYWGQGTQVTVSS”, which “polyreactivity (PSR sort gate)” value is on record?
**A.** low polyreactivity

**Q.** Which “polyreactivity (PSR sort gate)” value does the source give for “QVQLVESGGGLVQAGGSLRLSCAASGRTFNYNAMGCYRQAPGKERELVAAITSGGRTNYADSVKGRFTISRDNAKNTVYLQMNSLKPEDTAVYYCATEYYRYRWVGAFRYPVYYWGQGTQVTVSS” here?
**A.** low polyreactivity

**Q.** With “QVQLVESGGGLVQAGGSLRLSCAASGRTFNYNAMGWYRQAPGKERELVAAISWGGGSTFYAVSEKGRFTISRDNAKNTVYLQMNTLKPEDTAVYYCAADRQYGNRGAYYYWGQGTQVTVSS” as the sequence, how does the “polyreactivity (PSR sort gate)” value read?
**A.** low polyreactivity

**Q.** Which “polyreactivity (PSR sort gate)” value does the source give for “QVQLVESGGGLVQAGGSLRLSCAASGRTFNYSAMGWYRQAPGTERELVAAISSSGGRTYYADSVKGRFTISRDNAKITVYLQMNSLKPEDTAVYYCAADSFYYRPEYDYWGQGTQVTVSS” here?
**A.** low polyreactivity

**Q.** With “QVQLVESGGGLVQAGGSLRLSCAASGRTFNYYAMGWSRQAPGKERELVAAITSGGRTNYADSVKGRFTISRDNAKNTVYLQMNSLKPEDTAVYYCATEYYRYRWVGAFRYPVYYWGQGTQVTVSS” as the sequence, how does the “polyreactivity (PSR sort gate)” value read?
**A.** low polyreactivity

**Q.** With “QVQLVESGGGLVQAGGSLRLSCAASGRTFNYYAMGWYRQAPGKERELVAAISGSGGRTYYADSVKGRFTISRDNAKNTVYLQMNSLKPEDTAVYYCNADVGKYPYAHTYWARRYYYLGQGTQVTVSS” as the sequence, how does the “polyreactivity (PSR sort gate)” value read?
**A.** high polyreactivity

**Q.** Which “polyreactivity (PSR sort gate)” value does the source give for “QVQLVESGGGLVQAGGSLRLSCAASGRTFNYYGMGWYRQAPGKERELVAAINSGDNTYYADSVKGRFTISRDNAKNTVYLQMTSLKPEDTAVYYCNTDAFWYYYSWYDYWGQGTQVTVSS” here?
**A.** low polyreactivity

**Q.** With “QVQLVESGGGLVQAGGSLRLSCAASGRTFNYYTMGWYRQAPGKERELVAAISWSGDSTYYADSVKGRFTISRDNAKNTVYLQMNSLKPEDTAVYYCAAGYASGPRPQTAYYYWGQGTQVTVSS” as the sequence, how does the “polyreactivity (PSR sort gate)” value read?
**A.** low polyreactivity

**Q.** With “QVQLVESGGGLVQAGGSLRLSCAASGRTFPFNAMGWYRQAPGKERELVAVINSGGSTYYADSVKGRFTISRDNAKNTVYLQMNSLKPEDTAVYYCNAYSSRYRYNYWGQGTQVTVSS” as the sequence, how does the “polyreactivity (PSR sort gate)” value read?
**A.** high polyreactivity

**Q.** With “QVQLVESGGGLVQAGGSLRLSCAASGRTFPFYAMGWYRQAPGKEREFVASITRSGGSTNYADSVKGRFTISRDNAKNTVYLQMNSLKPEDTAVYYCNAGAVYWGYSRGWYERDYWGQGTQVTVSS” as the sequence, how does the “polyreactivity (PSR sort gate)” value read?
**A.** high polyreactivity

**Q.** For “QVQLVESGGGLVQAGGSLRLSCAASGRTFPGKAMGWYRQAPGKERELVAAISKSSSRTYYADSVKGRFTISRDNAKNTVYLQMNSLKAEDTAVYYCAASSFNNGHRYDYWGQGTQVTVSS”, which “polyreactivity (PSR sort gate)” value is on record?
**A.** high polyreactivity

**Q.** Which “polyreactivity (PSR sort gate)” value does the source give for “QVQLVESGGGLVQAGGSLRLSCAASGRTFPGNAMGWYRQAPGKERELVAAITSSGSTNYADSVKGRFTISRDNAKNTVYLQMNSLKPEDTAVYYCNAAWFYVYGVWILDWGQGTQVTVSS” here?
**A.** low polyreactivity

**Q.** Which “polyreactivity (PSR sort gate)” value does the source give for “QVQLVESGGGLVQAGGSLRLSCAASGRTFPGNAMGWYRQATGKERELVATISSGGTTNYADSVKGRFTISRDNAKNTVYLQMNSLKPEDTAVYYCATDTYHHKADYEYWGQGTQVTVSS” here?
**A.** low polyreactivity

**Q.** For “QVQLVESGGGLVQAGGSLRLSCAASGRTFPGYAMGWYRQAPGTEMEMVAAISSGGGTKYADSVKGRFTISRDNAKYTVYVQMNSLKPEDTAVFYCAARGGTYHWGRYYWRQYDYWGQGTQVTVSS”, which “polyreactivity (PSR sort gate)” value is on record?
**A.** high polyreactivity

**Q.** With “QVQLVESGGGLVQAGGSLRLSCAASGRTFPIYAMGWYRQAPGKERELVAAITRGGRTNYADSVKGRFTISRDNAKNTVYLQMNSLKTEDTAVYYCAARSYGTYLYAEYDYWGQGTQVTVSS” as the sequence, how does the “polyreactivity (PSR sort gate)” value read?
**A.** high polyreactivity

**Q.** Which “polyreactivity (PSR sort gate)” value does the source give for “QVQLVESGGGLVQAGGSLRLSCAASGRTFPKYAMGWYRQAPGKERELVAAITWRASRTYYADSVKGRFTISRDYAKITVYLQMNSLKPEDTAVYYCAAKGVGQAPKRDYWGQGTQVNVSS” here?
**A.** high polyreactivity

**Q.** For “QVQLVESGGGLVQAGGSLRLSCAASGRTFPNNAMGWYRQAPGKERELVAAISSGSSTDYADSVKGRFTISRDNAKNTVYLQMNSLKPEDTAVYYCNAGDYTYPGSPWPGYAYDYWGQGTQVTVSS”, which “polyreactivity (PSR sort gate)” value is on record?
**A.** low polyreactivity

**Q.** With “QVQLVESGGGLVQAGGSLRLSCAASGRTFPRYAMGWYRQAPGKEMELVAAISVRAGITYYADSVKGRFTISRDNAKNTVYLQMNSLKPEDTAVYYCAKDHWTTSYDEGDYWGQGTQVTVSS” as the sequence, how does the “polyreactivity (PSR sort gate)” value read?
**A.** low polyreactivity

**Q.** For “QVQLVESGGGLVQAGGSLRLSCAASGRTFPRYGMGWYRQAPGKERELVATIRTGGRTNYADSVKGRFTISRDNAKNTVYLQMNSLKPEDTAVYYCATDSSKHPYSPTLLKFDYWGQGTQVTVSS”, which “polyreactivity (PSR sort gate)” value is on record?
**A.** low polyreactivity

**Q.** Which “polyreactivity (PSR sort gate)” value does the source give for “QVQLVESGGGLVQAGGSLRLSCAASGRTFPRYVMGWYRPAPGKERELVASITSSGGSTYYADSVKGRLTISRDNAKNTVYLQMNSLKPEDTAVYYCAAYARPNSGPYAYRLDYWGQGTQVTVSS” here?
**A.** high polyreactivity

**Q.** Which “polyreactivity (PSR sort gate)” value does the source give for “QVQLVESGGGLVQAGGSLRLSCAASGRTFPRYVMGWYRQAPGKERELVAAITSSGGSTYYADSVKGRFTISRDNAKNTVYLQMNSLKPEDTAVYYCAAYARPYSGPYAYRLDYWGQGTQVTVSS” here?
**A.** high polyreactivity

**Q.** With “QVQLVESGGGLVQAGGSLRLSCAASGRTFPSNVMGRYIQAHGKERELVAGITWRGGSTYYADSVKGRFTISRDNAKYTVYLQINSLKPEDTAVYYCAVRTQYRRYEYWGHGTQVTVSS” as the sequence, how does the “polyreactivity (PSR sort gate)” value read?
**A.** high polyreactivity

**Q.** For “QVQLVESGGGLVQAGGSLRLSCAASGRTFPSYAMGWYRQAPGKERELVAAITRGGSTNYADSVKGRFTISRDNAKNTVYLQMNSLKPEDTAVYYCAAARWRWQLARDDYWGEGTQVTVSS”, which “polyreactivity (PSR sort gate)” value is on record?
**A.** high polyreactivity

**Q.** Which “polyreactivity (PSR sort gate)” value does the source give for “QVQLVESGGGLVQAGGSLRLSCAASGRTFPSYAMGWYRQAPGKERELVAGIRWGAGRTYYADSVKGRFTISRDNAKNTVYLQMNSLKPEVTAVYYCAADPWSGSDYWGQGTQVTVSS” here?
**A.** low polyreactivity

**Q.** For “QVQLVESGGGLVQAGGSLRLSCAASGRTFPSYAMGWYRQAPGKERELVAVIRGGGSTKYADSVKGRFTISRDNAKNTVYLQMNSLKPEDTAVYYCATRGYPKFNYIYYYWGQGTQVTVSS”, which “polyreactivity (PSR sort gate)” value is on record?
**A.** high polyreactivity

**Q.** With “QVQLVESGGGLVQAGGSLRLSCAASGRTFPSYTMGWYRQAPGKERELVAPNDGGGDTYYADSVKGRFTISRDNAKNSVYLQMKSLKPEDTAVYYCRDWYPSYWYYYYAEYDYWGQGTQVTVSS” as the sequence, how does the “polyreactivity (PSR sort gate)” value read?
**A.** high polyreactivity

**Q.** Which “polyreactivity (PSR sort gate)” value does the source give for “QVQLVESGGGLVQAGGSLRLSCAASGRTFPVNAMGWYRQAPAKQSELVATISWSGGSTYYADSVKGRFTISRDNAKNTVYLQMNSLKPEDTAVYYCAALGRHYRYDYWGQGTQVTVSS” here?
**A.** low polyreactivity

**Q.** For “QVQLVESGGGLVQAGGSLRLSCAASGRTFPVYAMGWYRQAPGKERELVAAIRGRSVRTYYADSVNGRFTISRDNAKNTVYLQMNSLKPEDTAVYYCAAYYFNPGMDYWGQGTQVTVSS”, which “polyreactivity (PSR sort gate)” value is on record?
**A.** high polyreactivity

**Q.** Which “polyreactivity (PSR sort gate)” value does the source give for “QVQLVESGGGLVQAGGSLRLSCAASGRTFPVYAMGWYRQAPGQERELVAAINTSGTSTYYADSVKGRFTISRDNAKNTVYLQMNSLKPEDTAVYYCATRYRYTYYWGQGTQVTVSS” here?
**A.** high polyreactivity

**Q.** Which “polyreactivity (PSR sort gate)” value does the source give for “QVQLVESGGGLVQAGGSLRLSCAASGRTFPWYAMGWYRQAPGKERELVAAISWTGGSTYYADSVKGRFTISRDNAKNTVYLQMNSLKPEDTAVYYCAASPWYLKYEYWGQGTQVTVSS” here?
**A.** low polyreactivity

**Q.** Which “polyreactivity (PSR sort gate)” value does the source give for “QVQLVESGGGLVQAGGSLRLSCAASGRTFPYNAMGWYRQATGKERELVATINTSGASTSYADSVKRRFTISRDNEKNTVYLQMNSLKPEVTAVYYCNRDRRYYHRFDYWGQGTQVTVSS” here?
**A.** low polyreactivity

**Q.** For “QVQLVESGGGLVQAGGSLRLSCAASGRTFPYYAMGLYRQAPGKERELVATITRGGSTYYADSVKGRFTISRDNAKNTVYLQMNSLKPEDTAVYYCAVDAYYEMDYWGQGTQLTVSS”, which “polyreactivity (PSR sort gate)” value is on record?
**A.** low polyreactivity

**Q.** Which “polyreactivity (PSR sort gate)” value does the source give for “QVQLVESGGGLVQAGGSLRLSCAASGRTFPYYAMGWYRQAPGKERELVAAISSSGGGTYYADSVKGRFTISRDNAKNTVYLQMNSLKPEDTAVYYCNAVSYYQDSFYYWGQGTQVTVSS” here?
**A.** high polyreactivity

**Q.** For “QVQLVESGGGLVQAGGSLRLSCAASGRTFPYYAMGWYRQAPGKERELVAAISSSGGSTYYADSVKGRFTISRDNAKNTVYLQMNSLKPEDTAVYYCAATRGWLHSFARDDHDYWGQGTQVTVSS”, which “polyreactivity (PSR sort gate)” value is on record?
**A.** high polyreactivity

**Q.** With “QVQLVESGGGLVQAGGSLRLSCAASGRTFPYYAMGWYRQAPGKERELVAAITGSGGRTYYADSVKGRFTISRDNAKNTVYLQMNRLKPEDTAVYYCATDRGYYTWRYGRNDYWGQGTLVTVSS” as the sequence, how does the “polyreactivity (PSR sort gate)” value read?
**A.** high polyreactivity

**Q.** For “QVQLVESGGGLVQAGGSLRLSCAASGRTFPYYAMGWYRQATGKERELVAAIRSSGDRTYYADSVKGRFTISRDNAKNTVYLQMNSLKPEDTAVYYCNKVFLRSRRYYWGQGTQVTVSS”, which “polyreactivity (PSR sort gate)” value is on record?
**A.** high polyreactivity

**Q.** For “QVQLVESGGGLVQAGGSLRLSCAASGRTFPYYVMGWNRQAPRKERELVATISSSGRTYYADSVKGRFTISRDNAKNTVYLQMNSLNPEDTSVYYCAARFRWNQNYHFYYWGQGTQVTVSS”, which “polyreactivity (PSR sort gate)” value is on record?
**A.** high polyreactivity

**Q.** Which “polyreactivity (PSR sort gate)” value does the source give for “QVQLVESGGGLVQAGGSLRLSCAASGRTFQANAMGWYRQAPGTERELVAAITGRGGTTYYADSVKGRFTISRDTAKNTVYVQMYSLKPEDTAVYYCALALSGYGFWGYDYWGLGTQVTVSS” here?
**A.** low polyreactivity

**Q.** With “QVQLVESGGGLVQAGGSLRLSCAASGRTFQEYAMGWYRQAPGKERELVADISDGGSTNYADSVKGRFTISRDNAKNTVYLQMNSLKPEDTAVYYCAADQYHGVGINFRSDYDYWGQGTQVTVSS” as the sequence, how does the “polyreactivity (PSR sort gate)” value read?
**A.** low polyreactivity

**Q.** For “QVQLVESGGGLVQAGGSLRLSCAASGRTFQFYAMGWYRPAPGKERELVAAITYSGDSTYYADSVKGRFTISRDNAKNTVYLQMNSLKPEDTAVYYCAAGVWFYWYEYDYWGQGTQVTVSS”, which “polyreactivity (PSR sort gate)” value is on record?
**A.** high polyreactivity
